According to patent US20110189095A1, “CRKL TARGETING PEPTIDES” (The Board of Regents, of the University of Texas System, priority 2008, published 2011):

Tested on: DU145 cells
Assay: Cell proliferation assay (WST-1)
Format: cell-based, human
Conditions: protein added exogenously 48 hours after siRNA transfection
From the text: In contrast, CRKL was not detected in control cell media as shown by immunoprecipitation either with anti-CRKL or with several control antibodies. […] Next, studies were undertaken to determine whether the CRKL secretion had any detectable effect(s) on cell proliferation and migration. […] As an additional control, it was shown that the decrease in cell proliferation could be rescued by exogenous CRKL (FIG. 8D) and only background levels of apoptosis (less than 1%) were detected in the CRKL siRNA knockdown cells or in serum-free medium cultured cells.
CRKL (mRNA accession # NM_005207), β1 integrin (mRNA accession # NM_002211), and control siRNAs were purchased (Santa Cruz, Ambion and Dharmacon). siRNA oligonucleotides sequences and corresponding manufacturers are summarized in (Table 3). Oligofectamine (Invitrogen) or DharmaFect (Dharmacon) were used to transfect siRNAs into DU145 cells (1-2×10^5 cells per well). The transfected cells were incubated for 48-72 hours prior to processing. […] Transfected cells were harvested and lysed in the presence of protease inhibitors. The tumor-homing phage binding activity was also examined in the CRKL knockdown cells. For rescue experiments, up to 1.5 μg of recombinant CRKL was exogenously added to CRKL siRNA transfected cells. […]

B1: exogenous CRKL: recombinant His-tag CRKL protein added exogenously (protein)
chain: MSSARFDSSDRSAWYMGPVSRQEAQTRLQGQRHGMFLVRDSSTCPGDYVLSVSENSRVSHYIINSLPNRRFKIGDQEFDHLPALLEFYKIHYLDTTTLIEPAPRYPSPPMGSVSAPNLPTAEDNLEYVRTLYDFPGNDAEDLPFKKGEILVIIEKPEEQWWSARNKDGRVGMIPVPYVEKLVRSSPHGKHGNRNSNSYGIPEPAHAYAQPQTTTPLPAVSGSPGAAITPLPSTQNGPVFAKAIQKRVPCAYDKTALALEVGDIVKVTRMNINGQWEGEVNGRKGLFPFTHVKIFDPQNPDENE
rescue of decrease in cell proliferation in CRKL siRNA knockdown cells: rescued
